The target in the test is FcγRs. Briefly: cell-based or functional assay.

Take “cis-LALA modified Fc polypeptide dimer fused to an anti-BACE1 Fab (bispecific antibody)”: the pSyk levels in primary human microglial cells on polypeptide-coated plates (pSyk sandwich immunoassay) stood at 3 fold.

The values are drawn from patent US20210130485A1.
